From the RNAGym collection of RNA variant scans (doi:10.7554/elife.80360)

B1: CPEB3 Ribozyme (parent)
chain: GGGGGCCACAGCAGAAGCGUUCACGUCGCGGCCCCUGUCAGAUUCUGGUGAAUCUGCGAAUUCUGCUGU

Variants of: B1
Experiment: self-cleavage, relative activity (ratio to wild type); higher = more cleavage; co-transcriptional

Variant	self-cleavage
A16C C24U	0.164
A16C C32A	0.0786
A16C C33U	0.261
A16C C34A	0.165
A16C C39G	0.151
A16C C39U	0.184
A16C C45A	0.264
A16C C45G	0.272
A16C C45U	0.339
A16C C57A	0.129
A16C C57G	0.0856
A16C C66U	0.203
A16C G25C	0.0921
A16C G28U	0.113
A16C G30A	0.188
A16C G30U	0.131
A16C G31A	0.0686
A16C G31C	0.113
A16C G31U	0.124
A16C G41C	0.18
A16C G47U	0.427
A16C G48C	0.409
A16C G50A	0.23
A16C G50U	0.306

Variant	self-cleavage
A16C G56A	0.231
A16C G56C	0.131
A16C G65C	0.174
A16C G68U	0.408
A16C U20A	0.0817
A16C U20C	0.125
A16C U21C	0.174
A16C U43C	0.204
A16C U43G	0.198
A16C U44A	0.0709
A16C U44G	0.307
A16C U46C	0.293
A16C U46G	0.309
A16C U53A	0.16
A16C U55C	0.165
A16C U61A	0.418
A16C U61C	0.26
A16C U62A	0.152
A16C U62C	0.222
A16C U62G	0.148
A16C U64A	0.0981
A16C U64C	0.145
A16C U67C	0.289
A16C U69C	0.82

Variant	self-cleavage
A16G A40G	0.788
A16G A42G	0.855
A16G A42U	0.83
A16G A51U	0.914
A16G A52C	0.927
A16G A59U	0.535
A16G A60G	0.663
A16G C18G	0.129
A16G C22A	0.167
A16G C22U	0.156
A16G C24A	0.481
A16G C24G	0.385
A16G C24U	0.68
A16G C27A	0.481
A16G C27G	0.102
A16G C27U	0.228
A16G C29G	0.309
A16G C32A	0.607
A16G C32G	0.125
A16G C33A	0.795
A16G C35A	0.179
A16G C35G	0.373
A16G C54A	0.413
A16G C54G	0.581

Variant	self-cleavage
A16G C63U	0.861
A16G C66A	0.579
A16G G17C	0.131
A16G G19A	0.163
A16G G19C	0.158
A16G G19U	0.184
A16G G28A	0.215
A16G G28U	0.188
A16G G37A	0.13
A16G G41A	0.404
A16G G47A	0.933
A16G G47C	1.02
A16G G50A	0.915
A16G G50C	0.896
A16G G56U	0.634
A16G G58A	0.932
A16G G58U	0.962
A16G G65A	0.622
A16G G65U	0.571
A16G G68A	1.02
A16G U21A	0.92
A16G U26C	0.555
A16G U36A	0.179
A16G U36G	0.259

Variant	self-cleavage
A16G U38G	0.143
A16G U43G	0.708
A16G U44C	0.734
A16G U44G	0.84
A16G U46A	0.948
A16G U49A	0.598
A16G U49C	0.854
A16G U53A	0.752
A16G U53G	0.784
A16G U55A	0.659
A16G U55G	0.67
A16G U62G	0.593
A16G U64C	0.513
A16G U67A	0.907
A16G U69C	1.08
A16U A23C	0.701
A16U A40C	0.267
A16U A40U	0.415
A16U A42U	0.82
A16U A51C	0.71
A16U A52C	0.856
A16U A52U	0.801
A16U A59C	0.427
A16U A59G	0.909

Variant	self-cleavage
A16U C18G	0.167
A16U C18U	0.301
A16U C22G	0.161
A16U C22U	0.168
A16U C24G	0.141
A16U C24U	0.337
A16U C27A	0.205
A16U C27G	0.115
A16U C27U	0.125
A16U C29U	0.117
A16U C32A	0.491
A16U C45G	0.839
A16U C45U	0.893
A16U C54A	0.637
A16U C54G	0.662
A16U C54U	0.895
A16U C57A	0.293
A16U C63A	0.501
A16U C63U	0.732
A16U G17C	0.193
A16U G19C	0.112
A16U G25A	0.206
A16U G25U	0.134
A16U G30U	0.261

Variant	self-cleavage
A16U G31C	0.147
A16U G31U	0.295
A16U G37C	0.0966
A16U G41A	0.411
A16U G41U	0.497
A16U G47C	0.906
A16U G47U	0.879
A16U G48U	0.907
A16U G50A	0.884
A16U G50C	0.762
A16U G58U	0.814
A16U G65C	0.462
A16U G65U	0.4
A16U G68A	0.953
A16U U20G	0.108
A16U U21C	0.322
A16U U21G	0.294
A16U U26G	0.461
A16U U36G	0.111
A16U U38G	0.272
A16U U43C	0.86
A16U U44G	0.767
A16U U46A	0.866
A16U U46G	0.78

Variant	self-cleavage
A16U U53C	0.66
A16U U55A	0.624
A16U U55C	0.539
A16U U62A	0.74
A16U U67C	0.856
A16U U69G	0.972
G17A	0.592
G17A A40G	0.344
G17A A42G	0.286
G17A A51U	0.433
G17A A52C	0.431
G17A A59C	0.308
G17A A59U	0.246
G17A A60C	0.189
G17A A60G	0.202
G17A C18U	0.122
G17A C22U	0.148
G17A C24U	0.142
G17A C27A	0.126
G17A C27G	0.134
G17A C27U	0.172
G17A C29G	0.749
G17A C32A	0.164
G17A C33A	0.21

Variant	self-cleavage
G17A C33G	0.188
G17A C34G	0.197
G17A C35U	0.345
G17A C45U	0.463
G17A C63U	0.313
G17A G28C	0.0891
G17A G30C	0.161
G17A G31A	0.158
G17A G37U	0.146
G17A G47U	0.562
G17A G48A	0.611
G17A G48U	0.614
G17A G56A	0.234
G17A G56C	0.238
G17A G56U	0.178
G17A U20A	0.0639
G17A U20G	0.098
G17A U26A	0.349
G17A U38A	0.241
G17A U43A	0.253
G17A U43C	0.336
G17A U43G	0.177
G17A U46A	0.634
G17A U46G	0.591

Variant	self-cleavage
G17A U55A	0.195
G17A U55C	0.141
G17A U61A	0.231
G17A U61C	0.264
G17A U62A	0.193
G17A U67C	0.491
G17A U69A	0.703
G17C	0.166
G17C A42G	0.128
G17C A51C	0.165
G17C A52C	0.126
G17C A59C	0.104
G17C A59G	0.122
G17C C18A	0.118
G17C C18G	0.148
G17C C22U	0.145
G17C C27U	0.16
G17C C29G	0.931
G17C C29U	0.199
G17C C32G	0.0951
G17C C33G	0.171
G17C C35G	0.153
G17C C35U	0.15
G17C C39U	0.117

Variant	self-cleavage
G17C C45A	0.119
G17C C54U	0.145
G17C C57G	0.0859
G17C C63A	0.162
G17C C66A	0.145
G17C C66G	0.136
G17C G31A	0.111
G17C G37U	0.107
G17C G41A	0.136
G17C G47A	0.185
G17C G47U	0.149
G17C G48A	0.137
G17C G50C	0.111
G17C G65C	0.195
G17C G68U	0.21
G17C U20C	0.157
G17C U21A	0.116
G17C U36C	0.118
G17C U38A	0.155
G17C U44A	0.24
G17C U44C	0.141
G17C U44G	0.137
G17C U53A	0.144
G17C U53C	0.134

Variant	self-cleavage
G17C U55A	0.177
G17C U61A	0.132
G17C U62C	0.194
G17C U67A	0.204
G17C U69C	0.284
G17U	0.643
G17U A23U	0.714
G17U A40C	0.147
G17U A40G	0.352
G17U A42G	0.353
G17U A52U	0.429
G17U A59C	0.179
G17U C27U	0.105
G17U C32G	0.135
G17U C32U	0.514
G17U C33G	0.224
G17U C34A	0.195
G17U C39U	0.278
G17U C45A	0.447
G17U C54A	0.188
G17U C54U	0.461
G17U C57A	0.192
G17U C57G	0.16
G17U C66A	0.239

Variant	self-cleavage
G17U C66U	0.412
G17U G19C	0.16
G17U G25U	0.121
G17U G28U	0.134
G17U G30A	0.184
G17U G47U	0.661
G17U G48A	0.748
G17U G58A	0.343
G17U G65C	0.218
G17U G68C	0.818
G17U G68U	0.768
G17U U21C	0.14
G17U U36C	0.252
G17U U38C	0.413
G17U U43A	0.218
G17U U43G	0.163
G17U U44G	0.31
G17U U46A	0.624
G17U U46G	0.599
G17U U53C	0.188
G17U U55C	0.227
G17U U61C	0.186
G17U U61G	0.344
G17U U64A	0.201

Variant	self-cleavage
G17U U64G	0.183
G17U U67A	0.513
G17U U67G	0.627
G17U U69A	0.675
G17U U69G	0.768
C18A A23C	0.128
C18A A23U	0.179
C18A A40C	0.197
C18A A42G	0.208
C18A A51C	0.164
C18A A52C	0.152
C18A A59G	0.145
C18A A59U	0.123
C18A A60C	0.0911
C18A A60G	0.195
C18A C24G	0.186
C18A C27G	0.112
C18A C27U	0.12
C18A C29A	0.127
C18A C29U	0.0504
C18A C33A	0.153
C18A C34G	0.14
